# Assay: soluble on expression in E. coli; label from the status in PepcDB or PDB records
row,Sequence,soluble on expression in E. coli
1,MRIHAFHRLYQYRQSISTKPFNARGCKVQRCPFCQVSEQHCLCELQPDIDSNVACMLIVSENEVFKPSNTGRLIADTVKETYVYQWNRTEPSQEMLDLLSNEDYLPVIVFPADYVDQPERLLDGLHTEHLHRTDGNSKKWLLIFIDGSWREARKIFRRSEFLQSLPVLSIEPECLSEYIMRRSENEQHLSTAEVATLVLKQAGENKASECLQLWFEAFRETYMLTKTRVKNDPNRPHLKRFKEWLKTESLEHHHHHH,not soluble
2,MAGHQISFAKEVQPIIETKCLSCHSCFDAPCQLKLESAESLLRGASQEPVYSSARTTEMKPTRLGIDELTVAGWRKRGFYSVLQSDREHAQSLLKNMITLGKQYPFPPNSKLPDSIKTGFARKNQCVSEEEFPGYAHDHPFEGMPFGTSGLTDREYSLLAGWLNQGAAVTDEPVTLTRDEEQTIRTWETLFNRDDKRGRLVARWLYEHLFLAYLYFPEAGDEPRFFELLRSSTPSGEAIIPVATVSPNSDPGGPFFYRLRPISGTIVHKRRISYPLDQMKLRRISELFFSEDWPVGDLPGYDYTERSNPFVTFAAIPARARYQFMLDEAEYFVRTFIHGPVCRGQIATDVIRDHFWTLFQSPESDLFITADTYRRQAIPLLGIPGQDDDLLDAGENWLRYLKRHNDYLALRQQHYVAQQPQGASLAHIWNGDGHNENALLTIFRHHNSASVVRGLAGAVPQTIWLMDYPLLEQTYYQLVVNFNVFGNVAHQVLTRLYFDLIRNGSEQNFVRLLPAGQRKTILNDWYQDLGKLKFGIVYEDIDDRSPSAERFVTENPKLELASHMLERFQSINTLSHDPLNRCEQGNCSRIDQPHWIQQADRALSGIAAQPAASLPGISLLPEVTFVRVQHGQNERTVYTLLRDRAHSNVAFMLGEELRYQPEKDRVTVYPGITGSYPNFMFDVPAAQVGEFVAKLSKAGKIKDFEQIVETWGIRRTHPQFWEILHDITAWQKQQQPLQAGIFDINRYENFLEHHHHHH,not soluble
3,MGSDKIHHHHHHMREDFTNEIVTESLNEAGILVEKPSEIRRHFDDLQFDSRKVTKKNTLFVVKGAFKIEYLTASLLDKISGIVTSRKEKINIPNLPHWIVSNSQIALAVLSAEFFGHPEKKLKILGITGTKGKTSSTYMAYSLLDRLTNHQTAMFSTIDTFLGRGIKFKSELTTPESYELFSNMKKALDNGNKYLVMEVSSQSYLKNRVFGIHFKVGAFLNISPDHIGINEHPTFADYLAHKKMLAENSDVFVSNIDDAHGQEFIDHAKSFGAKTVSVSENKKADVNFHIKKADLDESIFYLTEKGNSQEFLLDIPGVFNIYNASVAIAMVREMGFKPEKAKKALAELQIPGRMVKIKTKSHGLIIVDYAHNGQAVTTLLTFLKSQHQGGKIIIVLGSPGDKGEDRRSQFGEVISKFVDVAYLTTDDPGTEDPHQINNQIRKAISNPNVELHEELDRSKAIQEAIKKANINDLVVLAAKGEDAFQKTNHVDVPYLGDKKVAEEFLAEIEKV,not soluble
4,MGSDKIHHHHHHMIQPRIRQNPFETYEEVAEGFEDLLAPLELFFDREYQGHLDLGTHGTVYSKGTRDAEAFLRPLWGLGPYVTQNESEYLNDFLTGIIEGTDPESSSYWGKTKDYDQLIVEMAALSTFLLLNKEKTWDQLTKEQQNNLHSWLIQANENIIPPNNWHFFRVLLNLAMKHCEMPYSKEQIAVDLAVIDRFYVGNGWYYDGVETQVDYYVSFAIHYYSLLYCRFAPEDTARVAIMKERATLFAQEFKYWFTQPGEAIPFGRSLTYRFAQVSFFSALVFADVEALPWGEIKGLISRHLHQWMNKDIFTTDGLLSVGYDYQNMVFAEGYNGPGSPYWAFKTFILLAVPKDHPYWQAETQPISFPEKHLPSPESRNYYQVNDAGTHGLMFPAGQFINYQAHAHDKYSKFVYSSHFGFSTIKSDYWYYEGAYDNCLALAEDDHYFRTKGLDDQYEILDDRIIHQWHPWSDVAIKTTIVPLEGQHLRIHEIETQRALVAYEGGFSIPLFDEKVTCVSDQMAEVKNAKGVSKVENINGFSEAAIIRTEPNTNLLYPLTELPYLKANLSKGKHLLISLVTGVLPNEQIEPVKVRLKENQLLVEEKVVILGN,not soluble
5,MAHHHHHHMDYAAAIKQQAEDLQDELKDLALWQEEVARQHEVNKMKKSATFVTNSVPPIRGTVPSLKEAVLKSAGVVEKEDPVKKQKDKGNELFQSGKLQEAVEAYAVGIDLDPEGPMAHVLYGNRALCYLKLERWSDAERDASSCVRLNRTYAKGYFRRATARKQLGNLKGARTDLEAVLALSPNDVSATNEMSLVTKMIRADRDGAEPVTRKKIVITEVDDDDDEQCVGEGAQDKTASPSVIESNTGRHPNTVGDQVVKNEIAELERFRAAQRDAQEARSRERETKLQYKGRTSSRVEIVEEINNESKEGVVVSSSPLSLNNGVTSASAQECPSRELAAVSTSGAAQRPATFKDKKMNEPVVPRMLKPTVKWTKDTLKAPKSFTEFERVFLDLKDDEELLCFYVSVIPPGSMQVLFGSNMTPDILLGMLKAAGRLSGTSTVSFLKGLCTVKRVRDISLFFDDCEKKVVEEVMDVVVSCGASDEDVSLFRRQLGVI,soluble
6,MFMKYALFPGCKIAFERPDLELAMREVLTALDVPFEYLSDFSCCPTWASVPSFDIEAWLAISARNISLAEEKGLDIVVGCGDCYSVLNHARDMLKREEWRERVNRILAKVGRVYRGTTKIYHIIHLLEERKIKKNLKHRLNGFVAGVQPGCHLLWPAKIFDAKEENPFFPERLKKLVEAMGAETPHYSRLEYCCGNHIDIVDYEKFLDFVQLKLQSLKEEIDPDFIVTACSTCFIQLDEGQKRLKRLGRIDYEIPVFHFPQLLAICLGSNPEKVARISSVDRSKIISEILEGRE,not soluble
7,MSAFASSDRAEKSGIALEAQQKIYEKYDKNLAGEILQWVQNVTGQSFDTQGDADNLVKVFQDGSLLCTLANSLKPGSVKKVNTSAMAFKKMENISFFLKFAEEYVQKSELFQTVDLYEGQDPNAVLICLASLARKSEKNFGRSGLGPKEAQGDRREWTDEQLKAGHNVIGLQMGSNKGATASGLNMGNTRHM,not soluble
8,KLAYKLGIGLECPFDKIWSLQTGVSFVSKGTNHTIVETDGISAQAKVNASYLEFPVMVAARFAMDRNTYILVAAGPYGAWGIGGKTKALGYSWSSSSTPDWNTGNVVEINTFGKDGLDLRRFDYGVAIGLSVEYRHYVIGVEGRLGLCKLQKELQGKNITGFVTAGYKF,not soluble
9,MSSSDAFWRMFANKNKGKSNTRSAFQVVKEEQPSTSTEPDDKKPLHHEIAGEMIKNPAKGKRKRVQIKNDEYEQLMMLGVPVRVPRGLSLYSTQKLMIVRILTALKNSQNVLGESPTGSGKTMALLASTCAWLKQYIDEKRESKEKCEIHGFSGKTQVVFTNDIGIPLESKVYEEPPEEEEFIEPVPVKNDKLFEAQWEHDFTPHTPGETPPVTLKEELEPVKKPEPVETKCTCLPRVRIYYGTRTHKQIAQVVKEFSRLPYAKILKHTILASREQSCINPAARKHADISQYCKEVNSAHSIGCSFKSAMKPRFEKALPLRDHLERNGTVVFDMEKIVETLAISYPQLCPYFSTNRILTQDADIIFCPFSYLVDPLIRNSSDVQIRNSIVILDEAHNIEDTCREAASFSFTEKELDDSILSLRIKRKAVDTELDKTGIEEKLLHIPDREVHLKEFRGHLLYLEHLILEMLRWIRQVSTEAKTPARGGQDGVKTCTISSANLFTSLTDPENGVDLFTPPLTPKHAAVAASFSAITKHNEPEMQYFDAFKPSSTAIVCIEKWLYFQSYFGNQQYQSTYRLNISIEPINQNGRFNHTFDADVSMSTSFGNPRPTTTRSSAGPRNMQYKEENAWLADAAADGDDWKDPSMSETGHKPISEGCKTTISLWCMSPALSFFDAFNETRSIVLASGTLCPMDTLKTELGMEFKQQVEGDQVINKDNIFAAVLPIGPFGNRIQCTYRNTSDPESSFYCELGAIIKYVCSNVPAGILCFLPSYRVLDQLKQCMIRNSTMRQIEMKKVVLYEPRRSSELTSVMDQFDAAIFDPSRFGANINGSLMFAVFRGKVSEGIDFADDRARVVISVGIPYPNAMDDQVNAKKLYNDQNSKEKGILTGDEWYTTQAYRALNQALGRCLRHKNDWGAMLMIDERLERQTGNLVGGASSARVSKWIRAQLKSYPSFKEFNANFREFIQRRHAVEKAKKENFCE,not soluble
10,MIRYWKLLFSLAVASVLLVGCGTKEHETTQAAKEEQTADDQKPSSDAPSSKNPSPSKEAKEQTSTKKNEEEQRAAGGGQPAASQPTISLSYQDGNQTVTKTATLQTSNNQHFSLYVLEGWTLDAEEPGADVLLHGDAFARIRLLSEGETNYEQLAQEHAQAVDANAARQQTNGLPKPFADAVWYTAQADGVTVHVIASAQPTPMLLTVHAPSNEDVLGAVLAMAATLQKQ,not soluble
